Test results as given in US9029508 (dated 2015).

B1: DVD456 DLL4 arm (antibody, V domains shown)
VH: QVQLVQSGAEVKKPGASVKISCKASGYSFTAYYIHWVKQAPGQGLEWIGYISSYNGATNYNQKFKGRVTFTTDTSTSTAYMELRSLRSDDTAVYYCARDYDYDVGMDYWGQGTLVTVSS
VL: DIVMTQSPDSLAVSLGERATISCRASESVDNYGISFMKWFQQKPGQPPKLLIYAASNQGSGVPDRFSGSGSGTDFTLTISSLQAEDVAVYYCQQSKEVPWTFGGGTKVEIKR
modifications: DVD-Ig inner
B2: DVD443 DLL4 arm (antibody, V domains shown)
VH: B1 VH
VL: B1 VL
modifications: DVD-Ig outer
B3: DVD450 DLL4 arm (antibody, V domains shown)
VH: B1 VH
VL: B1 VL
modifications: DVD-Ig inner
B4: DVD447 DLL4 arm (antibody, V domains shown)
VH: B1 VH
VL: B1 VL
modifications: DVD-Ig outer
B5: DVD501 DLL4 arm (antibody, V domains shown)
VH: EVQLQQSGPELVKPGASVKMSCKASGYTFTSYVINWVKQKPGQGLEWIGLINPYNDGTKYNEKFKVKATLTSDKSSSTAYMELSSLTSEDSAVYYCASYYYGSRYYFDYWGQGTTLTVSS
VL: DIQMTQSSSYLSVSLGGRVTITCKASDHINNWLAWYQQKPGNAPRLLISGATSLETGVPSRFSGSGSGKDYTLSITSLQTEDVATYYCQQYWSIPLTFGAGTKLELKR
modifications: DVD-Ig outer
B6: DVD503 DLL4 arm (antibody, V domains shown)
VH: B5 VH
VL: B5 VL
modifications: DVD-Ig outer
B7: DVD496 DLL4 arm (antibody, V domains shown)
VH: B5 VH
VL: B5 VL
modifications: DVD-Ig inner
B8: DVD499 DLL4 arm (antibody, V domains shown)
VH: B5 VH
VL: B5 VL
modifications: DVD-Ig outer
B9: DVD506 DLL4 arm (antibody, V domains shown)
VH: B5 VH
VL: B5 VL
modifications: DVD-Ig inner
B10: DVD492 DLL4 arm (antibody, V domains shown)
VH: B5 VH
VL: B5 VL
modifications: DVD-Ig inner
B11: DVD502 DLL4 arm (antibody, V domains shown)
VH: B5 VH
VL: B5 VL
modifications: DVD-Ig inner
B12: DVD494 DLL4 arm (antibody, V domains shown)
VH: B5 VH
VL: B5 VL
modifications: DVD-Ig inner
B13: DVD516 DLL4 arm (antibody, V domains shown)
VH: EVQLQQSGPELEKPGASVKISCKASGYSFTGYNMNWVKQSNGKSLEWIGNIDPYFGGTNYNQKFKGKATLTVDKSSSTAYMQLKSLTSEDSAVYYCARNYDYDGGCFDYWGQGTTLTVSS
VL: QAVVTQESALTTSPGETVTLTCRSSTGAVTTSNYANWVQEKPDHLFTGLIGGTNNRAPGVPARFSGSLIGDKAALTITGAQTEDEAIYFCALWYSNHWVFGGGTKLTVLG
modifications: DVD-Ig inner
B14: DVD531 DLL4 arm (antibody, V domains shown)
VH: B13 VH
VL: B13 VL
modifications: DVD-Ig outer
B15: DVD514 DLL4 arm (antibody, V domains shown)
VH: B13 VH
VL: B13 VL
modifications: DVD-Ig inner
B16: DVD517 DLL4 arm (antibody, V domains shown)
VH: B13 VH
VL: B13 VL
modifications: DVD-Ig outer
B17: DVD524 DLL4 arm (antibody, V domains shown)
VH: B13 VH
VL: B13 VL
modifications: DVD-Ig inner
B18: DVD518 DLL4 arm (antibody, V domains shown)
VH: B13 VH
VL: B13 VL
modifications: DVD-Ig inner
B19: DVD528 DLL4 arm (antibody, V domains shown)
VH: B13 VH
VL: B13 VL
modifications: DVD-Ig inner
B20: DVD530 DLL4 arm (antibody, V domains shown)
VH: B13 VH
VL: B13 VL
modifications: DVD-Ig inner
B21: DVD479 DLL4 arm (antibody)
chain 1: EVQLVESGGGLVQPGGSLRLSCAASGFTFTDNWISWVRQAPGKGLEWVGYISPNSGFTYYADSVKGRFTISADTSKNTAYLQMNSLRAEDTAVYYCARDNFGGYFDYWGQGTLVTVSS
chain 2: DIQMTQSPSSLSASVGDRVTITCRASQDVSTAVAWYQQKPGKAPKLLIYSASFLYSGVPSRFSGSGSGTDFTLTISSLQPEDFATTYYCQQSYTGTVTFGQGTKVEIKR
modifications: DVD-Ig outer
B22: DVD476 DLL4 arm (antibody)
chain 1: B21 chain 1
chain 2: B21 chain 2
modifications: DVD-Ig inner
B23: DVD478 DLL4 arm (antibody)
chain 1: B21 chain 1
chain 2: B21 chain 2
modifications: DVD-Ig inner
B24: DVD481 DLL4 arm (antibody)
chain 1: B21 chain 1
chain 2: B21 chain 2
modifications: DVD-Ig outer

Each binder was assayed against DLL4 (human, UniProt Q9NR61) (assay: ELISA).
Sequence of DLL4 (Q9NR61 27-524): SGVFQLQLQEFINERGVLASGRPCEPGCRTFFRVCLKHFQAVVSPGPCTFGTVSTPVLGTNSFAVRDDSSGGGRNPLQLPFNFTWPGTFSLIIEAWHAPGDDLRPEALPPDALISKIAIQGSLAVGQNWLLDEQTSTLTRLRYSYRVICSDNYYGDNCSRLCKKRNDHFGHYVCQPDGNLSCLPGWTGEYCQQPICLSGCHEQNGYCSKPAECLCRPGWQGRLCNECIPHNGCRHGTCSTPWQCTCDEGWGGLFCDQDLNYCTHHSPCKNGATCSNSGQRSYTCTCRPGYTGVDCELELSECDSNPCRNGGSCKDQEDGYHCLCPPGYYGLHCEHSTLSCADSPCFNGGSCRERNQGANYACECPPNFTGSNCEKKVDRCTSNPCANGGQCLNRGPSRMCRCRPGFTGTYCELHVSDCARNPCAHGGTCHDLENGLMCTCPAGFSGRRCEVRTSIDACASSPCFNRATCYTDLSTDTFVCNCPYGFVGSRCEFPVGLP

EC50 [nM] | Binder
2.48 | B1
0.2 | B2
1.99 | B3
0.12 | B4
0.18 | B5
0.33 | B6
5.59 | B7
0.09 | B8
0.32 | B9
1.77 | B10
3.17 | B11
39.5 | B12
4.33 | B13
0.57 | B14
21.1 | B15
0.1 | B16
0.22 | B17
5.9 | B18
0.81 | B19
0.22 | B20
1.69 | B21
0.3 | B22
2.53 | B23
3.3 | B24
